Results from article PMC6278290, “Biochemical and Functional Characterization of Anthocyanidin Reductase (ANR) from Mangifera indica L” (Molecules, 2018).

How the values were obtained:
[1] = substrate: Oc1cc(O)c2cc(O)c(-c3ccc(O)c(O)c3)[o+]c2c1; assay: purified protein; assay type: biochemical, Mangifera indica; conditions: 1 mM NADPH, 20 min
[2] = substrate: NC(=O)C1=CN([C@@H]2O[C@H](COP(=O)(O)OP(=O)(O)OC[C@H]3O[C@@H](n4cnc5c(N)ncnc54)[C@H](OP(=O)(O)O)[C@@H]3O)[C@@H](O)[C@H]2O)C=CC1; assay: purified protein; assay type: biochemical, Mangifera indica; conditions: 100 μM cyanidin, 100 mM citrate buffer pH 4.0, 30 °C, 20 min, substrate inhibition at 1.25-3.75 mM, varied: cofactor
[3] = 100 mM citrate buffer pH 4.0, 30 °C
[4] = 100 mM phosphate buffer pH 3.0, 30 °C

Protein | Km [1, 3] | kcat/Km [1, 3] | Km [2] | Vmax [2] | Km [1, 4] | kcat/Km [1, 4]
MiANR1-3 (Mangifera indica; S2A) (protein, S2A from the NcoI site; C-terminal His6 tag (pET28b), E. coli BL21(DE3) pLysS, Ni-NTA purified; about 37 kDa on SDS-PAGE) MAAQQTAKNTACVVGGTGFVASLLIKLLLQKGYSVSTTVRDPDNQQKISHLLSLQELGELKIFGADLTDEGSFDAPIAGSDIVFHVATPVNFASEDPENDMIKPAIQGVENVLKACAKAKTVKRVILTSSAAAVTINNQDGTGLVMDEKHWTDVEFLSSAKPPTWGYPVSKTLAERHAWKFAQENNIDLITIIPSLMAGPSLTPDIPSSLNLAMSLISGNEFLTNALKGMQMLSGSISIAHVEDVCRAHIFLAEKESASGRYICCAVNTSVPELAKFLHQRYPQYKVPTDFGDFPSKPKLLISSGKLISEGFSFKFGIEEIYDQTVEYFKAKGVL | 80.43 ± 5.85 µM | 401000 M⁻¹ s⁻¹ | 18.98 ± 1.18 µM | 0.019 µmol/min/mg |  | 
MiANR1-1 (Mangifera indica; S2A) (protein, S2A from the NcoI site; C-terminal His6 tag (pET28b), E. coli BL21(DE3) pLysS, Ni-NTA purified; about 37 kDa on SDS-PAGE) MAAQQTAKNTACVVGGTGFVASLLIKLLLQKGYSVSTTVRDPGNQKKISHLLSLQELGELKIFGADLTDEGSFDAPIAGSDIVFHVATPVNFASEDPENDMIKPAIQGVGNVLKACAKAKTVKRVILTSSAAAVTINNQDGTGLVMDEKHWTDVEFLSSAKPPTWGYPASKTLAERHAWKFAQDNNIDLITIIPSLMAGPSLTPDIPSSLNLAMSLISGNEFLTNALKGMQMLSGSISIAHVEDVCRAHIFLAEKESASGRYICCAVNTSVPELAKFLQQRYPQYKVPTDFGDFPSKPKLLISSEKLISEGFSFKFGIEEIYDQTVEYFKAKGVL |  |  |  |  | 48.32 ± 3.45 µM | 330000 M⁻¹ s⁻¹
MiANR1-2 (Mangifera indica; S2A) (protein, S2A from the NcoI site; C-terminal His6 tag (pET28b), E. coli BL21(DE3) pLysS, Ni-NTA purified; about 37 kDa on SDS-PAGE) MAAQQTAKNTACVVGGTGFVASLLIKLLLQKGYSVSTTVRDPDNQQKISHLLSLQELGELKIFGADLTDEGSFDAPIAGSDIVFHVATPVNFASEDPENDMIKPAIQGVENVLKACAKAKTVKRVILTSSAAAVTINNQDGTGLVMDEKHWTDVEFLSSAKPPTWGYPASKTLAERHAWKFAQENNIDLITIIPSLMAGPSLTPDIPSSLNLAMSLISGNEFLTNALKGMQMLSGSISIAHVEDVCRAHIFLAEKESASGRYICCAVNTSVPELAKFLQQRYPQYKVPTDFGDFPSKPKLLISSEKLISEGFSFKFGIEEIYDQTVEYFKAKGVL | 116.4 ± 4.42 µM | 363000 M⁻¹ s⁻¹ | 18.14 ± 1.4 µM | 0.0227 µmol/min/mg |  | 
